Laboratory results: the DeepSol protein solubility set

Assay: soluble on expression in E. coli; label from the status in PepcDB or PDB records

| Sequence | soluble on expression in E. coli |
| --- | --- |
| MKAITLLSSGLDSVAALAIAAESLEIEMAITFDYGQRAGQREMEYSEKVCEHFGIEQRIIKLDWLGEITHTSLVNRDEEVPSLSFEDIDENSPSMITEYSAKAVWVPNRNGVMLNIAGSFAESRGCDYIVVGFNGEEAGTFPDNSRDYIQAVDNAFSYSTQNGVKVLAPLAEMGKTEIVKKALEAEAPLEYSWSCYHGGEIPCGKCESCVRRARAFKNIGIKDPLLERLGI | not soluble |
| GPGSMGMSVTMINAIPLLRSMHANCVCPVCFEVFKKPVCFPCGHILCRACATRCIAARPRCPLCNQAVPNMRHCAPLPQLSLLCVLTREVGLRASGLQLRSSVQNAATPLSHRNHDSSMKRHRGATADDAVEETQGEHQAPRPRRSSLSPPPEQRPFLSLREPRASHRVANAVAATEGSTANHAQHTSLPELLRAAAGETQRLQSESPPPPLLMVGEGDDVLLGEAPHRSIIAQVTTSLPSAIAHRVGDSGALGRGQDQPPTPTPPPALSPSPAPFSTPLQLMCNHITDHADQLDSTPLLSPLPFTAFAVVEAASVTAAASVTHRSAQASSRVLATEHASNAKKASSWSLWRRGRGVIHCTLTPPAARLLARQSVVADGAGRGKTEAASKTASSSSAASADTAASLWHRFGCCALCGLDVVQRAAVRQRLQHLLRSPTAHCDPAELAMQTEESLSLLLGPLWGVCCEVQEHSTNIAQSQVSTCEGEYTTTELDAVQGSYCCPCRGEVTAHHVTGVAHHNCLAWAGLLDFFTNTSLEDLPAAAAAGVYFVPSMTASLHMTVPLQDPLGVLAARTSGRVARWQLLAATLCHMHQRDADEESELGKRVQTSGESGAEGPLMTPRCALCEDGAPLLASNSPSFPFGAGLRVCEGTERGESSCGQQYHYPCALLAGASACIIFGLEDECNVLDASASTPVRDRSAGGKRRGVERPVEVWCGVCHERHEVCRRRV | not soluble |
| MAEHRGGSGNFAEDREKASDAGRKGGQHSGGNFKNDPQRASEAGKKGGQQSGGNKSGKS | soluble |
| MKKYEIIFKKLEEDILKGHYQMGDYLPPEMELSQTYASSRDTVRKALQLLTKAGFIKTVQGRGSQIIKRERINFPVSQLTSYQELVKQLQMNVKTNVIAIDKLIVDEKLTKLTGFENKGLVWRITRQRVIDGVASILDTDYLDKALIPHMTREIAEHSIYDYLENQLKLDIAYAQKIITIDQVSQKDKILLDLDSENHVVSVKSKVYLSNQQQFQFTESRHKLEKFRFVDFARRHRD | not soluble |
| SNVNIDSEQLFTEEKPKDYAQPEVLCHTFELLSNLHKLLPNRTVEVLHSYRSEEDKRKCEKPEFSGIEKILARHQLPKEINLSPKPSHVPSWKRKIINNISGNWKKCRLWQKSIYEPPMGTIIVRWTKKNLQPSEDLKSVIQRLSALGPIISVTPCGRESAVVVFRDAASACKAVSAFQTMSADSMFHCSWQHRFMSKNKTWSRRYPSKIHAEKKEKHP | soluble |
| MSLNKKIEELNKLDKKVVLAPMAGITDGDFCRKFKDLFAIVTIGGYNLDSATYKASRDIEKRGRKEFSINLEEFNSYIIEQIKKARESNALVSVNVRFVDIDEAYDKLLTIAKHADIIELNCHCRQPEITSLGIGQELMKNKNLLKEFLTKMKELNKPIFLKIRLNCIPLKELIDNLNYVRDYFDGLHVDCFYPGKPYADMDSLKILAEEFNDKIIIGNNSIDSIEKAKEMLKYSDFVSVARTILKGNVEWIKELNKENIEGHHHHHH | soluble |
| MIKRPIHLSHDFLAEVIDKEAITLDATMGNGNDTVFLAKSSKKVYAFDIQEEAIAKTKAKLTEQGISNAELILDGHENLEQYVHTPLRAAIFNLGYLPSADKTVITKPHTTIKAIKNVLDILEVGGRLSLMVYYGHDGGKSEKDAVIAFVEQLPQNNFATMLYQPLNQVNTPPFLIMVEKLQSYENEV | not soluble |
| MAKESVKILQGKLDVKSLIDQLNAALSEEWLAYYQYWVGALVVEGAMRADVQGEFEEHAEEERHHAQLIADRIIELEGVPVLDPKKWFELARCKYDSPTAFDSVSLLNQNVSSERCAILRYQEIANFTNGKDYTTCDIAKHILAEEEEHEQDLQDYLTDIARMKESFLKK | soluble |
| MLEDYAISLEEVNFNDFIVVDVRELDEYEELHLPNATLISVNDQEKLADFLSQHKDKKVLLHCRAGRRALDAAKSMHELGYTPYYLEGNVYDFEKYGFRMVYDDTCDKKN | soluble |
| MGSDKIHHHHHHMDKMLYTAASGASRIMEAQSIRANNLANAETTGFKADLERVKSMALPGVEASLSTRVLVQTQSNGFSQQSGEMNHTGRNLDMAIRDRGLFTVMVDGGEAYTRAGAMIADAEGQLTVNGRPVLGIDGPMVLPEHKDLFVGEDGTISVLPAEGGVIQEVGRLKMVNPELNELTKGADGLLYPIAAGVLAADDGVQVDSGYLESSNVQAVSELIASMDLSRQFEIQVKLMKSAEKLAEAGNRLIRNA | not soluble |
| MLKLKFNEEGLIPVIAQDYRTGEVRMLAYANEEAIKKTLETGYAHYYSRSRKKIWKKGETSGELQKVIEVRVDCDEDALIYVIEQEKDRACHTGERNCFFRDIEGNKVEKPLPFEVLPRLQDVIREKIERKEENSYTAKLVSQGKERVFQKFGEEAVETLIALMKGEKEEVIYESADMLYTFLVSLSVSGIDIKEVMEELIRRFK | soluble |
| MTTETRSLYSQLPAIDRLLRDSSFLSLRDTYGHTRVVELLRQMLDEAREVIRGSQTLPAWCENWAQEVDARLTKEAQSALRPVINLTGTVLHTNLGRALQAEAAVEAVAQAMRSPVTLEYDLDDAGRGHRDRALAQLLCRITGAEDACIVNNNAAAVLLMLAATASGKEVVVSRGELVEIGGAFRIPDVMRQAGCTLHEVGTTNRTHANDYRQAVNENTALLMKVHTSNYSIQGFTKAIDEAELVALGKELDVPVVTDLGSGSLVDLSQYGLPKEPMPQELIAAGVSLVSFSGDKLLGGPQAGIIVGKKEMIARLQSHPLKRALRADKMTLAALEATLRLYLHPEALSEKLPTLRLLTRSAEVIQIQAQRLQAPLVAHYGAEFAVQVMPCLSQIGSGSLPVDRLPSAALTFTPHDGRGSHLESLAARWRELPVPVIGRIYDGRLWLDLRCLEDEQRFLEMLLK | not soluble |
| RPVWYGEPVDIQPEHRDMMLVVDLSGSMAEEDMKTSNGDFVDRLTAVKQVVSDFIDQRKGDRLGLVLFGDHAYLQTPLTFDRNTVREQLDRTVLNLVGQRTAIGEGLGLATKTFIESNAPQRTIILLSDGANTAGVLEPLEAAQLAKDNHAKIYTVGIGAGEMQVRGFFGKQTVNTARDLDEDTLTKIATMTGGQYFRARNADELAEIYQTIDALEP | soluble |
| YLDVRQVMYTLVAVFIGSRVIDFVQEGAYAARGALIISKDNDAIASHVMLSMNRGVTVLEGRGGFSKNEQDVLYIVVAKNEIVQLKNIVQAIDPHAFVSVSVVHDVMGEGFTLDENKNPIY | not soluble |
| MSLDYNNITEALQAFRTEKAYRHAPLRSCFFDMDGVLFDSMPAHARSWVEAAGECGIAAEPLDFYRWEGQKGSDTIKILFERGYGRLPTEKEIADMYGRKSQLFALYNSGNVIDDAPALVSDVCDRGLRIMLVTGSSQTDILQRLQRSYGDNFSPANMVTGADVHRGKPHPEPYLKALECVGMSPSEAFVVENAPLGVRAAVDAGIFTIAVNTGCLPDADLWDAGASLVLPSMAVLRSLLGELLTESLSSSAEGHHHHHH | soluble |
| MAFKDTFNKMISYFDTDEVNEVEEDVAASTDNVIPRSQQSVRASSHPKQEPRNNHVQQDHQARSQEQTRSQMHPKHGTSERYYQQSQPKEGHEMVDRRKRMSTSGIANRREQYQQSTCSDQTTIALKYPRKYEDAQEIVDLLIVNECVLIDFQFMLDAQARRCLDFIDGASKVLYGSLQKVGSSMYLLAPSNVSVNIEEMTIPHTTQDIGFDFDMKRRLEHHHHHH | not soluble |
| GMDIINNRRSIRNYKGKKVEKEKIEKLLRAAMQAPSAGNQQPWEFIVLEDRENIDKLSNFSKYANSLKTAPLAIVLLADEEKMKISEMWEQDMAAAAENILLEAAYLDLGAVWLGAQPIEERVKNLKEMFNLKSNIKPFCVISVGYPENSENKFIDRFDAKRIHIEKY | soluble |
| GGSCFKCGKKGHFAKNCHEHAHNNAEPKVPGLCPRCKRGKHWANECKSKTDNQGNPIPPH | soluble |
| AWVDQTPRSVTKETGESLTINCALKNAADDLERTDWYRTTLGSTNEQKISIGGRYVETVNKGSKSFSLRIRDLRVEDSGTYKCGAYFSDAMSNYSYPIPGEKGAGTVLTVKAA | soluble |
| MAHHHHHHMEAAAERCFQEGDLKGAACLYANLMVLYPQYTKMARMCRVLSNPLDVPLPYRYADVVEALLDPCVTYQTLFGTDAPPSVVRKAFQGWTLLVHPDKNPYPKAADAFNRLVAFKAAAMGTVDEGPPNAGGVNSKSSCRGNVRNRQRCTKRHGSANRANQSNQHSQLGDEIDMSLYELKKVQVTLKSLKRKNVDDSELPPLSAFLRPGGGARSRGGVDHSNNTKGSVPTPETQEGGSASLDESIPTSPRSCTADTACEPGLSQTIEAQLRSSEGATDAPYVLSELTPQQNEVVRGGKGLEGENTEEPLGLPTAGGHMQQYATNRNVGEVDNGSRVSLEADDSVQGPAKGIQNPDALPRRRGKHVDRLEGTCTGEFTQQSNQNSTCDTSSSEGLHSTTFNEDVPLVELAKLGIRELFDGIQKKINRDPIRLNCDLSFATYTRDKQKEVNEASVQSNDET | not soluble |
| MSLTYPYRTTMALNTYQYRETTMIDPKKIEQIARQVHESMPKGIREFGEDVEKKIRQTLQAQLTRLDLVSREEFDVQTQVLLRTREKLALLEQRISELENRSTEIKKQPDPETLPPTLEGGSHHHHHH | soluble |
| MSLRAELNQGLIDFLKASPTPFHATASLARRLEAAGYRRLDERDAWHTETGGRYYVTRNDSSLIAIRLGRRSPLESGFRLVGAHTDSPCLRVKPNPEIARNGFLQLGVEVYGGALFAPWFDRDLSLAGRVTFRANGKLESRLVDFRKAIAVIPNLAIHLNRAANEGWPINAQNELPPIIAQLAPGEAADFRLLLDEQLLREHGITADVVLDYELSFYDTQSAAVVGLNDEFIAGARLDNLLSCHAGLEALLNAEGDENCILVCTDHEEVGSCSHCGADGPFLEQVLRRLLPEGDAFSRAIQRSLLVSADNAHGVHPNYADRHDANHGPALNGGPVIKINSNQRYATNSETAGFFRHLCQDSEVPVQSFVTRSDMGCGSTIGPITASQVGVRTVDIGLPTFAMHSIRELAGSHDLAHLVKVLGAFYASSELEGHHHHHH | soluble |
| MGSDKIHHHHHHALSSIEKIQGKDRYETAAKIAQKQTYENVVLVNTDNTLADGLSASGLAGTVKAPILLSQRNSIPSDTEKMLKDVKKVYIIGTEDSIGKSVENELKQKGIEVKRIGGNDRIETSYLIAKEIASIKPIDKVFITNGYTGEADAMSASSVASRDGAPIILTNGKNVPFEKKEGVQCYALGSEEIISNDLVKKTNSVRLAGEDRFETNKKVIKHFYSSAKEFYLSKGYQLVDAVAGSSIAKNAPIVLVDGNSDKSVLRSADKITALGGIDEKTLEQCLSASSLDASAPTITVGNLNIYQGDKFDISKLNIVAKDSNGNDLTPELIGNINTDKVGKYKVTIKATDIGGKTTSISVEVNVLEYKTNDMNSSEFKRMVSSEMYSLVNSYRKEKGKEPLQVSENLQGMANYWSKYMADKGEFAHVINGKNAAEVFSGGIRSEENIAFVPLTTKSTYTTKDAREVANVIFTVWKKSDKYNENMLSSKFAYTGFGLYILPDGQVYATQEFLNK | not soluble |
